Measurements taken from US6214569A, “Methods for screening for inhibitors of Alzheimer β-peptide filament formation” (President and Fellows of Harvard College, priority 1997, dated 2001).
Entries after “also recorded” stand apart in the source; their conditions may differ.

T1: α1 -ACT (Homo sapiens, UniProt P01011)
T1 sequence (P01011 24-423): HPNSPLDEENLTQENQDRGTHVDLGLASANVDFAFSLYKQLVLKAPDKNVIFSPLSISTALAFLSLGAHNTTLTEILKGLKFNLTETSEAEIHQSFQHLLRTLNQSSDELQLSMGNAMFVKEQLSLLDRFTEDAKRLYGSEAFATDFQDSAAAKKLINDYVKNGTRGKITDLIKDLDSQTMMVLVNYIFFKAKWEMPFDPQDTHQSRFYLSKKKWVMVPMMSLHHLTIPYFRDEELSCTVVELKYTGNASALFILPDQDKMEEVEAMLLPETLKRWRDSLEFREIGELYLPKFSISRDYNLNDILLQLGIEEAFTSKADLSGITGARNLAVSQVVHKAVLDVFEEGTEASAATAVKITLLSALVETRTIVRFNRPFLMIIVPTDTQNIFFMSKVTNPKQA

B1: α1 -ACT: protease inhibitor α1-antichymotrypsin, amyloid associated protein (protein, UniProt P01011 24-423, looked up)
Alpha-1-antichymotrypsin: T1 sequence (P01011 24-423)

Columns and labels:
human cortical neurons = experiment: Neurotoxicity of Aβ filaments formed with promoting factors, MTT assay (Example 4); type: cell-based; details: applied day 12, MTT day 16
Procedure: Certain promoters of the assembly of Aβ filaments of amyloid filaments formed in vitro also result in these filaments being neurotoxic. This was determined by using fetal human cortical tissue from 18-22 week gestation were used for this study. The protocol obtaining postmortem fetal tissue complied with all federal guidelines for federal research. The cortical cell culture were prepared as follows. The frontal and temporal lobes were removed from fetal brain. Cells were disassociated in calcium and magnesium free Hank's balanced salt solution containing 0.2% […] for 10 minutes at room temperature, and subsequently disassociated in serum-containing Dulbecco's Modified Eagle Medium (D-MEM) with DNase (0.2 mg/ml) for three times. The cells were plated onto laminin (10 μg/ml) coated 96-well plate ([…]) in a neuronbasal medium supplemented with B27 (Gibco), 2 mM glutamine and 1x antibiotic antimycotic solution and kept in a humidified 5% CO2 atmosphere. […]
The products of the reactions shown in FIG. 3 were both applied to two or three sister cultured wells on day 12. Cell viability was evaluated by morphological criteria and colorimetric MTT (Tetrazolium) on day 16. […] The plates were read on a BT 1000 microreader, using a test wavelength of 550 nm, a reference wavelength of 650 nm. The plates were routinely read within 20 minutes of addition of DMSO.

Aβ1-42 [1] = molecular target: T2, Aβ1-42 (Homo sapiens, UniProt P05067); experiment: Aβ filament formation quantitated by electron microscopy (filament crossovers); type: biochemical; details: molar ratio 4:1, 18 hours
T2 sequence (P05067 672-713): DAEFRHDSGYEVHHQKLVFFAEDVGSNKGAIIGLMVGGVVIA
Procedure: At 18 hours, filaments were applied to carbon-coated Formvar on 200 mesh copper grids, dried, negatively stained with 3% uranyl acetate and visualized in a JEOL-100CX electron microscope. Many small and a few large filaments were visible in the electron micrograph and are representative of the products of this polymerization reaction.
The degree of filament formation was analyzed using electron microscopy. The reaction mixture was diluted with water or buffer. A Formvar-coated copper electron microscope grid was touched briefly to a droplet of the reaction mixture, allowing the filaments to stick to the Formvar plastic film. This procedure was also performed with Formvar which was precoated with carbon prior to the sticking of the filaments to the surface. The filaments were then stained with either a solution of uranyl acetate or sprayed ("shadowed") with a heavy metal such as platinum to allow their visualization.
The Aβ1-42 peptide was incubated in the presence of purified Apolipoproteins E2, E3 and E4 and α1 -ACT, ApoAI and ApoAII at a molar ratio of 4:1, as described in Examples 1 and 2. Electron microscopic examination of the reaction products was used to quantitate the amount of Aβ filament formation from the reaction of Aβ with ApoE3, ApoE4 or α1 -ACT. Five randomly chosen electron micrographs of each reaction product after 18 hours of incubation as in Examples 1 and 2 were analyzed by counting the number of crossovers that the filaments underwent with each other. This provides a measure of both the number and length of the amyloid filaments per unit area of the grid. […] The formation of Aβ filaments was inhibited when ApoE4 was incubated with Aβ in the presence of ApoE2 and equimolar amounts of ApoE4 and ApoE2 were used. Reducing the amount of Aβ filament formed to levels produced by the control protein, BSA (see FIG. 3).

α1 -ACT [2] = molecular target: T1, α1 -ACT; details: disclosed in U.S. Ser. No. 08/179,574; cited from earlier work
α1 -ACT [3] = molecular target: T1, α1 -ACT; details: disclosed in U.S. Ser. No. 08/179,574; cited from earlier work; remark: listed apart in the source
Aβ1-42 [4] = molecular target: T2, Aβ1-42; experiment: Aβ filament assembly monitored by light scattering; type: biochemical; details: Aβ1-42 80 μM, molar ratio 200:1, light scattering
Procedure: Biosynthetic Aβ1-42 was incubated at a concentration of 80 μM in 100 μl of 10 μM Tris-HCl; pH 7.0 at 22° C. for 8, 24 and 48 hours. Assembly of Aβ into high molecular weight filamentous structures was monitored by light scattering at […]. Light scattering increases linearly according to the size and number of filaments formed. The results are shown in FIG. 1 and indicate that Aβ peptide spontaneously forms amyloid filaments, starting after about 8 hours of incubation; the rate of formation levels off after about 24 hours. The Aβ1-42 was incubated, as described in Example 1, in the presence or absence of α1 -antichymotrypsin or a control protein (BSA) at a molar ratio of 200:1. Filament assembly was monitored by light scattering. The results are shown in FIG. 2 and indicate that α1 -ACT results in the rate of filament formation being enhanced about ten-fold over the controls. Formation of filaments was essentially complete after about 8 hours.

[5] = test system: primary human cortical neurons; experiment: Promotion of Aβ1-42 neurotoxicity by pathological chaperones, MTT assay (Example 12); type: cell-based; details: Aβ1-42 80 μM with 0.4 μM protein, 48 hours at 22° C.; MTT on day 4
Procedure: Biosynthetic Aβ1-42 (80 μM) was incubated with ACT (CalBiochem), purified human apoE and individual control protein (0.4 μM) in 100 μl of 10 μM Tris-HCl, pH 7.0 for 48 hours at 22° C. The 12.5 μl of each reaction product was then added to 14 days old primary human cortical neurons in culture. The cell viability was measured by a colorimetric MTT (Sigma) assay on day 4. Data are expressed ±S.E.M. in FIGS. 7-9. ACT and apoE4 induced a 2- and 4-fold increase in neurotoxicity of Aβ1-42, respectively. […] Since Aβ1-42 is prone to self-aggregate into filaments, only aliquots of each preparation of Aβ1-42 devoid of filaments, as judged by electron microscopy, were used for experiments.
Method of cell culture: The cortical neuron cultures were prepared as follows. Frontal lobes of brain were removed from an electively terminated human fetus on gestational age of 18-21 weeks. Cortical cells were dissociated in serum-free medium containing 0.2% trypsin (Sigma) and 25 μg/ml DNase I (Sigma) and plated 4×10^4 cells per well (96-well plate, Falcon) precoated with 10 μg/ml laminin (Gibco). The cells were cultured in DMEM (Gibco) supplemented with 10% fetal calf serum (Gibco) and 2 mM glutamine. Cultures were kept at 37° C. in a 7% CO2 atmosphere. After day 4 in vitro, non-neuronal cell division was halted by exposure to 10^-5 M cytosine arabinoside. […]

Molecule	neurotoxicity of the reaction mixture of Aβ plus the substance (human cortical neurons)	promotion of Aβ filament formation (in words) (Aβ1-42 [1])	also measured
Aβ: Alzheimer's β-peptide, 39-42 amino acid peptide; biosynthetic Aβ1-42 used in the examples [reference compound]	neurotoxic		
ApoAII: Apolipoprotein AII		inactive	
ApoAI: Apolipoprotein AI		inactive	
Aβ1-28: peptide corresponding to amino acids 1-28 of the N-terminal of Aβ peptide			effect on the ability of α1-ACT to inhibit chymotrypsin (α1 -ACT [2]): suppress the ability of α1 -ACT to inhibit chymotrypsin; complex formation with α1-ACT (α1 -ACT [3]): form stable complexes
B1	greatest neurotoxicity	promote the formation of Aβ filaments	enhancement of the rate of Aβ filament formation over the controls (Aβ1-42 [4]): at least ten; also recorded: about ten; increase in neurotoxicity of Aβ1-42 [5]: 2 fold
